According to patent US20220002418A1 (HUABO BIOPHARM SHANGHAI, published 2022):

T1: Soybean trypsin inhibitor 1-S type (Sigma, T-2327) (soybean, UniProt P01070 25-205)
T1 construct: Non-target molecule, amine-coupled to the CM5 chip
T1 sequence (looked up): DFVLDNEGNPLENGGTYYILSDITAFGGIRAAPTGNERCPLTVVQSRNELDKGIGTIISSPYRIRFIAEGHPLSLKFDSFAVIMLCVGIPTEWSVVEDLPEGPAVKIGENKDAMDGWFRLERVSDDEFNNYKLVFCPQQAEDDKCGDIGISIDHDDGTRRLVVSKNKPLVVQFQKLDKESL


Assays:
[1] = molecular target: T2, Recombinant human VEGF165 (Sino Biological, 11066-HNAH) (human, UniProt P15692-4 27-191); assay: SPR (Biacore 8K), antibody captured on anti-human capture CM5 chip, antigen as analyte, 1:1 model
T2 construct: Bought reagent
T2 sequence (P15692 other isoform, or with tags, fused parts or gaps): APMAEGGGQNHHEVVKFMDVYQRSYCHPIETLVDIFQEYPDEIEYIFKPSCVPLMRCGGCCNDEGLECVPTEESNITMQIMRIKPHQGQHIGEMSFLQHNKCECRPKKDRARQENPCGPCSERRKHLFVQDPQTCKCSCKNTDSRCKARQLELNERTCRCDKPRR
Description: (§1) Methods: Anti-Human Capture-CM5 chip was prepared according to the amino coupling method of the Human Antibody Capture Kit. The chip was balanced at room temperature for 20-30 min, and then loaded into Biacore 8K instrument. The transient transduced protein was diluted to experimental working concentration with equilibration buffer. The antigen was diluted to 50 nM with equilibration buffer, and then diluted to seven concentration gradients with a 3-fold dilution, and two zero concentrations (equilibration buffer) and one repeat concentration (usually a repeat of the lowest concentration) were set. According to the order of antibody, antigen, and regeneration, cyclical experimental analysis were performed on 10 antigen concentrations (2 zero concentrations, 7 gradient concentrations and 1 repeat concentration), wherein the antigen injection flow rate was 30 μL/min, binding time was 120 seconds, and dissociation time was 600 seconds. After the analysis was completed, the corresponding analysis program was selected to analyze the data, confirming that there was no obvious reference binding. Kinetics, 1:1 binding modle was selected to fit the data, and the kinetic related parameters Ka, Kd and KD values of human-mouse chimeric antibody and humanized antibody were obtained.

[2] = molecular target: T3, Recombinant human PD-L1 (Sino Biological, 10084-H08H) (human, UniProt Q9NZQ7 19-239); assay: as above
T3 construct: Bought reagent
T3 sequence (Q9NZQ7 19-239 limits assumed): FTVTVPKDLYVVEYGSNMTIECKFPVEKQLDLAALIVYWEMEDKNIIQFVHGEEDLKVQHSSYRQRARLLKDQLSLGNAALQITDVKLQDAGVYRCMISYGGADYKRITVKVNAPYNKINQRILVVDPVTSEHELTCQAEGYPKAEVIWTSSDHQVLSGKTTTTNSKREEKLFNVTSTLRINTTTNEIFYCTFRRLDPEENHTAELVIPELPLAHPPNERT
Description: as §1

[3] = molecular target: T4, Egg white lysozyme (Sigma, L3790) (UniProt P00698 19-147); assay: SPR (Biacore 8K), same method as Example 3, lysozyme on CM5 chip
T4 construct: Non-target molecule, amine-coupled to the CM5 chip
T4 sequence (P00698 19-147 limits assumed): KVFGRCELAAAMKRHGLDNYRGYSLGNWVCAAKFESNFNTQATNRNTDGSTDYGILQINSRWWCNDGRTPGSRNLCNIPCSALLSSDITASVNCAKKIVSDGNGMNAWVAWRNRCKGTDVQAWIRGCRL
Description: (§2) Methods: Series S Sensor Chip CM5 was balanced at room temperature for 20-30 min, and loaded into Biacore 8K instrument. Egg white lysozyme and soybean trypsin inhibitor 1-S type were fixed to the CM5 chip, respectively, using the Amino Coupling Kit. The injection buffer was HBS-EP+1×. 4 balance cycles were setted. The rabbit polyclonal antibody against lysozyme, the antibody against trypsin inhibitor, and the humanized monoclonal antibody were diluted to 1000 nM with equilibration buffer, and the flow rate was set as 5 μL/min, and the injection channels were 1, 2 and 3. The Flow Cells were 1 and 2. The binding time was 10 min, and the dissociation time was 15 min. The regeneration flow rate was 50 μl/min, which is regenerated first with 0.85% phosphoric acid for 60 s, and then with 50 mM sodium hydroxide for 30 s. The results of non-specific adsorption of bispecific antibody HB0025 and non-target molecules are shown in Table 3, and the sensor diagram of the detection of non-specific adsorption of bispecific antibody and non-target molecules is shown in FIG. 3.

[4] = molecular target: T1, Soybean trypsin inhibitor 1-S type …; assay: SPR (Biacore 8K), same method as Example 3, soybean trypsin inhibitor on CM5 chip
Description: as §2

[5] = molecular target: T2, Recombinant human VEGF165 (Sino …); assay: SPR (Biacore 8K), same method as Example 2
Description: as §1

[6] = molecular target: T3, Recombinant human PD-L1 (Sino …); assay: SPR (Biacore 8K), same method as Example 2
Description: as §1

Binder	Kd [1]	koff [1]	kon [1]	Kd [2]	koff [2]	kon [2]	binding result [3]	binding result [4]	Kd [5]	koff [5]	kon [5]	Kd [6]	koff [6]	kon [6]
bispecific antibody HB0025 (bifunctional antibody 900387) (bispecific antibody, human IgG1, kappa, L234A L235A, symmetrical molecule with two H and two L chains; also called HB0025-22A3/9E3-ProA-EP; HB0025-22F5/4E6-ProA-EP) heavy: not shown light: DVVMTQTPLSLSVTPGQPASISCKSSQSLANSYGNTYLSWYLHKPGQSPQLLIYGISNRFSGVPDRFSGSGSGTDFTLKISRVEAEDVGVYYCLQGTHQPPTFGQGTKLEIKRTVAAPSVFIFPPSDEQLKSGTASVVCLLNNFYPREAKVQWKVDNALQSGNSQESVTEQDSKDSTYSLSSTLTLSKADYEKHKVYACEVTHQGLSSPVTKSFNRGEC	0.0295 nM	0.00028 s⁻¹	9.5e+06 M⁻¹ s⁻¹	0.844 nM	0.000402 s⁻¹	476000 M⁻¹ s⁻¹	–	–	–	–	–	–	–	–
bispecific antibody 900388 (bispecific antibody, human IgG1, kappa, L234A L235A) heavy: not shown light: DVVMTQTPLSLSVTPGQPASISCKSSQSLANSYGNTYLSWYLHKPGQSPQLLIYGISNRFSGVPDRFSGSGSGTDFTLKISRVEAEDVGVYYCLQGTHQPPTFGQGTKLEIKRTVAAPSVFIFPPSDEQLKSGTASVVCLLNNFYPREAKVQWKVDNALQSGNSQESVTEQDSKDSTYSLSSTLTLSKADYEKHKVYACEVTHQGLSSPVTKSFNRGEC	–	–	–	–	–	–	no binding	no binding	0.0398 nM	0.00041 s⁻¹	1.03e+07 M⁻¹ s⁻¹	0.824 nM	0.000522 s⁻¹	633000 M⁻¹ s⁻¹
